In PMC6400186, “Structure of mammalian plasma fetuin-B and its mechanism of selective metallopeptidase inhibition” (IUCrJ, 2019):
Numbering of substitutions follows the chain as printed. Names may count otherwise.

T1: mouse ovastacin (mouse, UniProt Q6HA09 85-435)
T1 sequence (looked up): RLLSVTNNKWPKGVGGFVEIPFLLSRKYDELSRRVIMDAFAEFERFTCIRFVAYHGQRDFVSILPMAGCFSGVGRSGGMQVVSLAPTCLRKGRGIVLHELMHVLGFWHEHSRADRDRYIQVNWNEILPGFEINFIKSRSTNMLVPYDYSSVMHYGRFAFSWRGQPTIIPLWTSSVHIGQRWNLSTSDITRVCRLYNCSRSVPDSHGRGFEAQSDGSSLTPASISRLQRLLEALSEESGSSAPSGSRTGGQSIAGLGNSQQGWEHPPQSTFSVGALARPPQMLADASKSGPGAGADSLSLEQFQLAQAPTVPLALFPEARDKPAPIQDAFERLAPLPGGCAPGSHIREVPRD

T2: human meprin β (human, UniProt Q16820 62-652)
T2 sequence (looked up): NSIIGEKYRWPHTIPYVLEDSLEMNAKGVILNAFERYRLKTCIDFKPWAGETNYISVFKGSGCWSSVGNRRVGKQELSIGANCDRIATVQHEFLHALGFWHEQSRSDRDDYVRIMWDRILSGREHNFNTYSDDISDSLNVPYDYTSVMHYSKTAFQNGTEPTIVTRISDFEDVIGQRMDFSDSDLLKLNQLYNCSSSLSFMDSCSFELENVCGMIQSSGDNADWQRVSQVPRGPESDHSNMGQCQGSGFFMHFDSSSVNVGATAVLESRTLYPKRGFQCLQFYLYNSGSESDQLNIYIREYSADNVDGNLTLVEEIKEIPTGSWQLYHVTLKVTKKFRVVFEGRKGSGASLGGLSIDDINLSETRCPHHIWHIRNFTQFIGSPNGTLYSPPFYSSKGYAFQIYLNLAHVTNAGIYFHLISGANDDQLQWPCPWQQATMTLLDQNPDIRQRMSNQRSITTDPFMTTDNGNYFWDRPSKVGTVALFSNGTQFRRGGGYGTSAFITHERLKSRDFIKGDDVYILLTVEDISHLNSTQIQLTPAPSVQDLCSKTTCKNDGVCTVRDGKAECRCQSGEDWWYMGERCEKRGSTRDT

B1: mouse fetuin-B (natural protein, UniProt Q9QXC1 19-388, looked up)
chain: RSPPAPPLPQRPLSPLHPLGCNDSEVLAVAGFALQNINRDQKDGYMLSLNRVHDVREHYQEDMGSLFYLTLDVLETDCHVLSRKAQKDCKPRMFYESVYGQCKAMFHINKPRRVLYLPAYNCTLRPVSKRKTHTTCPDCPSPIDLSNPSALEAATESLAKFNSKSPSKKYELVKVTKAMNQWVSGPAYYVEYLIKEAPCTKSQASCSLQHSDSEPVGICQGSTVQSSLRHVPLIQPVEKSVTVTCEFFESQAQVPGDENPAVTQGPQKLPQKNTAPTSSPSVTAPRGSIQHLPELDDEKPEESKGGSPEEAFPVQLDLTTNPQGDTLDVSFLYLEPGDKKLVVLPFPGKEQRSAECPGPEKENNPLVLPP
modifications: N-glycans at N40 and N139
notes: mouse fetuin-B, UniProt Q9QXC1; residues R29-P388 (molecule B) and Q28-P388 (molecule D) are modelled in the complex; also called mFB; murine fetuin-B; source: baculovirus-transduced High Five cells, purified (Ni-NTA); not shown: His6, C-terminal, kept
B2: mouse fetuin-B D156A (natural protein, UniProt Q9QXC1 19-388, looked up)
chain: B1 chain with D138A
notes: also called mFB_(D156A); source: ExpiCHO-S cells, purified (Ni-NTA)
B3: mouse fetuin-B P155A+D156A (natural protein, UniProt Q9QXC1 19-388, looked up)
chain: B1 chain with P137A, D138A
notes: also called mFB_(P155A,D156A); double mutant; source: ExpiCHO-S cells, purified (Ni-NTA)
B4: mouse fetuin-B P155A (natural protein, UniProt Q9QXC1 19-388, looked up)
chain: B1 chain with P137A
notes: also called mFB_(P155A); source: ExpiCHO-S cells, purified (Ni-NTA)
B5: chimeric mutant mFBABA (other, mouse, UniProt P29699 19-136, looked up)
chain: APQGTGLGFRELACDDPEAEQVALLAVDYLNNHLLQGFKQVLNQIDKVKVWSRRPFGVVYEMEVDTLETTCHALDPTPLANCSVRQLTEHAVEGDCDFHILKQDGQFRVMHTQCHSTPVSKRKTHTTCPDCPSPIDLSNPSALEAATESLAKFNSKSPSKKYELVKVTKAMNQWVSGPAYYVEYLIKEAPCTKSQASCSLQHSDSEPVGICQGSTVQSSLRHVPLIQPVEKSVTVTCEFFESQPQPANANAVGPVPTANAALPADPPASVVVGPVVVPRGLSDHRTYHDLRHAFSPVASVESASGETLHSPKVGQPGAAGPVSPMCPGRIRHFKI
notes: mouse fetuin-A CY1 domain, UniProt P29699, residues A19-P136; mouse fetuin-B CY2 domain with linker, UniProt Q9QXC1, residues V145-Q269; mouse fetuin-A CTR domain, UniProt P29699, residues P254-I345; also called chimera of mouse fetuin-B with CY1 and CTR from mouse fetuin-A; source: adenovirus-infected COS-7 cells, purified (Ni-NTA)

Legend:
Assay in all cases: enzyme inhibition assay (fluorogenic substrate), Ki by Morrison's equation; fetuin-B variant titrated against enzyme; 37°C, 150 mM sodium chloride, 50 mM Tris-HCl pH 7.4, 0.01% Brij 35, triplicate; enzyme and substrate 1.0 nM and 195 µM for astacin, 0.5 nM and 26 µM for meprin β, 0.7 nM and 26 µM for ovastacin
Settings in all cases: both partners purified
crayfish astacin = molecular target: T3, crayfish astacin (European freshwater crayfish Astacus …, UniProt P07584 50-251)
T3 construct: astacin, Astacus astacus, UniProt P07584; Carries a catalytic zinc ion; also called archetypal astacin; source: purified from the digestive fluid of the European freshwater crayfish Astacus astacus L
T3 sequence (P07584 50-251): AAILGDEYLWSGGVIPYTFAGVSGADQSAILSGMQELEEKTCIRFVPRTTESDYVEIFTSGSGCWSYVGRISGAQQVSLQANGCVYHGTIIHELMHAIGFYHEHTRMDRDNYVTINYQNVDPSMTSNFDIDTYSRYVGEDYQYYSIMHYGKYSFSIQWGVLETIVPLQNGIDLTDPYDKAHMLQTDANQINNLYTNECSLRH

mouse ovastacin = molecular target: T1, mouse ovastacin
human meprin β = molecular target: T2, human meprin β

Binder	Ki (crayfish astacin) [nM]	Ki (mouse ovastacin) [nM]	Ki (human meprin β) [nM]	loss of inhibitory potency (change of Ki) against wild-type mouse fetuin-B (crayfish astacin)	loss of inhibitory potency (change of Ki) against wild-type mouse fetuin-B (mouse ovastacin)	loss of inhibitory potency (change of Ki) against wild-type mouse fetuin-B (human meprin β)
B1	0.1	0.046	0.081	–	–	–
B2	–	–	–	~2 orders of magnitude	~4 orders of magnitude	~2 orders of magnitude
B3	–	–	–	2 orders of magnitude	4 orders of magnitude	4 orders of magnitude
B4	–	–	–	~1 orders of magnitude	~2 orders of magnitude	~1 orders of magnitude
B5	–	–	–	> 3 orders of magnitude	> 4 orders of magnitude	> 4 orders of magnitude
